We go through 1 molecule from patent US20200057058A1 (MIT, published 2020).

The target in assay [1] is monomeric streptavidin variant mSA2. Nature of the assay: fluorescent binding curves, labeled mSA2 in 50% urine or 50% blood serum, 4 h.
Assay [2] deals with T1, streptavidin (UniProt P22629 37-163, limits assumed).
T1 construct: It was used without a stated label in the sandwich assays; also called SA
Nature of the assay: apparent Kd (Kd,app); fluorescent binding curve, labeled SA in 50% blood serum, 4 h; quadratic fit.

The target in assay [3] is T1, streptavidin. The assay is described as follows: apparent Kd (Kd,app); fluorescent binding curve, labeled SA in 50% urine, 4 h; quadratic fit.
Assay [4] deals with monomeric streptavidin variant mSA2. Nature of the assay: fluorescent binding curve, labeled mSA2 in PBS, 4 h exposure; quadratic fit. As to the method:
(§1) The binding function of rcSso7d.SA oligomer-PNIPAM thin films was measured using fluorescently-labeled monomeric streptavidin (mSA2) and fluorescently-labeled streptavidin (SA). Details for the expression, purification, and fluorescent labeling of mSA2 are provided below. Samples were prepared by serial dilution of SA or mSA2 in PBS (pH 7.4), human urine (diluted to 50% v/v in PBS, pH 7.4), or blood serum (obtained as the supernatant by centrifuging whole blood at 1500×g for 10 minutes, then diluted to 50% v/v in PBS, pH 7.4). 0.5 μL drops of solutions containing serially diluted fluorescent mSA2 and fluorescent SA samples in PBS (pH 7.4) were gently applied to the surface of each bioconjugate thin film. Films were incubated in a sealed chamber saturated with water vapor at room temperature to prevent to prevent drying of the applied fluorescent samples. […] Fluorescence microscopy images were acquired at 4× magnification using a Cy5 filter set and exposure time of 5000 ms on an Olympus IX-81 inverted fluorescence microscope with an AxioCam HRC CCD camera. Fluorescent intensity was calculated using ImageJ software⁶⁷ by determining the average fluorescent signal in a rectangular area of the fluorescent image free of defects and occupying no less than half of the full sample application area.
(§2) To evaluate how the apparent size-based diffusion properties translated to biosensing capabilities, binding curves were measured using SA and mSA2 solutions in buffer. Binding curves were fit with a quadratic model that is a function of three parameters: the average MFI per binding event a, the total concentration of binding sites [P]T, and the apparent dissociation constant K_{d,app} describing the binding equilibrium between analyte and binding sites within the thin film.

Assay [5] shares this target. The assay is described as follows: fluorescent binding curve, labeled mSA2 in 50% blood serum, 4 h; quadratic fit.
The target is the same in assay [6]. The assay is described as follows: apparent Kd (Kd,app); fluorescent binding curve, labeled mSA2 in 50% blood serum, 4 h; quadratic fit.
Assay [7] has the same target. The assay is described as follows: apparent Kd (Kd,app); fluorescent binding curve, labeled mSA2 in 50% urine, 4 h; quadratic fit.
The target is the same in assay [8]. The assay is described as follows: apparent Kd (Kd,app); fluorescent binding curve, labeled mSA2 in PBS, 4 h exposure; quadratic fit. On the procedure: as §1, §2
For assay [9] the target is unchanged. The assay is described as follows: fluorescent binding assay, labeled mSA2 in PBS on monolayer; quadratic curve fit. As to the method: The binding function of rcSso7d.SA oligomer-PNIPAM thin films was measured using fluorescently-labeled monomeric streptavidin (mSA2) and fluorescently-labeled streptavidin (SA). Details for the expression, purification, and fluorescent labeling of mSA2 are provided below. Samples were prepared by serial dilution of SA or mSA2 in PBS (pH 7.4), human urine (diluted to 50% v/v in PBS, pH 7.4), or blood serum (obtained as the supernatant by centrifuging whole blood at 1500×g for 10 minutes, then diluted to 50% v/v in PBS, pH 7.4). 0.5 μL drops of solutions containing serially diluted fluorescent mSA2 and fluorescent SA samples in PBS (pH 7.4) were gently applied to the surface of each bioconjugate thin film. […] After 1 hour, films were thoroughly rinsed with water for 10 seconds (a time determined to be sufficient to remove unbound molecules from the film, see FIG. 33, dried under filtered airflow, and immediately analyzed for fluorescent signal. Fluorescence microscopy images were acquired at 4× magnification using a Cy5 filter set and exposure time of 5000 ms on an Olympus IX-81 inverted fluorescence microscope with an AxioCam HRC CCD camera. Fluorescent intensity was calculated using ImageJ software⁶⁷ by determining the average fluorescent signal in a rectangular area of the fluorescent image free of defects and occupying no less than half of the full sample application area. […]

The target in assay [10] is T1, streptavidin. The assay is described as follows: sandwich assay: SA in 50% blood serum, biotin-HRP/TMB detection.
Assay [11] concerns the target T1, streptavidin. Nature of the assay: sandwich assay: SA in 50% urine, biotin-HRP/TMB detection.

Where only a bound is given, the exact number is not on record here.

T1 sequence (P22629 37-163 limits assumed): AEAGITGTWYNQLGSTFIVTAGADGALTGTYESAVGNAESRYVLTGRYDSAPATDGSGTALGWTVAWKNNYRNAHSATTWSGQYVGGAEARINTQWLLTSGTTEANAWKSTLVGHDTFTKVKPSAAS

B1: rcSso7d.SA monolayer (designed binder)
chain: MGSIHHHHHHSSGLVPRGSHMCATVKFTYQGEEKQVDISKIKIVARDGQYIDFKYDEGGGAYGYGWVSEKDAPKELLQMLEKQ
modifications: EDC/NHS-activated protein coupled to an amine-functionalized silicon wafer
notes: also called monomeric rcSso7d.SA; surface-immobilized rcSso7d.SA
For B1, the “sensitivity in the fluids relative to buffer” value in assay [1] was at most 10 fold. Besides, the Kd with streptavidin [2] came to 40 µM; with streptavidin [3] it was 47 µM; in assay [6] it was 62 µM; in [7], 50 µM; in assay [8], 3 µM; in assay [9], 2 µM. The “[P]T (total concentration of binding sites)” value is 0.35 nM in assay [4] and 0.4 nM in [5]. For the same molecule, the LOD in the assay with streptavidin [10] is 40 nM; in the assay with streptavidin [11] it was 32 nM.
